Measured values taken from publication PMC10681739, “High-throughput data and modeling reveal insights into the mechanisms of cooperative DNA-binding by transcription factor proteins”.

T1: ETS1 (Homo sapiens, UniProt P14921)
T1 sequence: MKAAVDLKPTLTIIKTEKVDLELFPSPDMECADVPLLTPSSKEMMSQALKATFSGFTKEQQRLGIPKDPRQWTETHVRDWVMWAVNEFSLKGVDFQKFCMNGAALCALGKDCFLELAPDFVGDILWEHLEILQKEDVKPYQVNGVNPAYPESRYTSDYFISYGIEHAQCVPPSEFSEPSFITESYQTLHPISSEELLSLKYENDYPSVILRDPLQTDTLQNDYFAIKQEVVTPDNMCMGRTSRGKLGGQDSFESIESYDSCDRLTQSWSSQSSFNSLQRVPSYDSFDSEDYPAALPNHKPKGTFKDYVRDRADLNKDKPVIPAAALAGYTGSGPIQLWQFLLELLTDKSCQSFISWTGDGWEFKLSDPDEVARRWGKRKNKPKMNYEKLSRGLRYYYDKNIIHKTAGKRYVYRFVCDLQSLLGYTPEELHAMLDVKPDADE

B1: Table S2 C row 168 (dsDNA)
DNA 1: AACAGATACTCAAAAACCGCTGGCTGAACACATGGA
DNA 2: TCCATGTGTTCAGCCAGCGGTTTTTGAGTATCTGTT
B2: Table S2 C row 138 (dsDNA)
DNA 1: AGTAGTGCTTTTTCAACCACAGACCAACATTTGAGA
DNA 2: TCTCAAATGTTGGTCTGTGGTTGAAAAAGCACTACT
B3: Table S2 C row 117 (dsDNA)
DNA 1: ACAGAGCCATTACCTACCACAGAGCTGACGTGAACA
DNA 2: TGTTCACGTCAGCTCTGTGGTAGGTAATGGCTCTGT
B4: Table S2 C row 131 (dsDNA)
DNA 1: GAGGCATTATAGAAAACCGCAAGATTTTAGTCTGAG
DNA 2: CTCAGACTAAAATCTTGCGGTTTTCTATAATGCCTC
B5: Table S2 B row 123 (dsDNA)
DNA 1: ACAACCCGGAAGTTGGCGCAGCGCGCTTGCCAATGG
DNA 2: CCATTGGCAAGCGCGCTGCGCCAACTTCCGGGTTGT
B6: Table S2 C row 119 (dsDNA)
DNA 1: GGAAAGGTTGACGATAGTGGTTAAGTGGCTCGGCCT
DNA 2: AGGCCGAGCCACTTAACCACTATCGTCAACCTTTCC
B7: Table S2 B row 741 (dsDNA)
DNA 1: CAACTTCCGGGGCCGGTTGCCTGGCAACAGCAGGAG
DNA 2: CTCCTGCTGTTGCCAGGCAACCGGCCCCGGAAGTTG
B8: Table S2 B row 4089 (dsDNA)
DNA 1: GCTGTTTCCTGCTGATAAAAACACCCCTCAACTTCA
DNA 2: TGAAGTTGAGGGGTGTTTTTATCAGCAGGAAACAGC
B9: Table S2 B row 3533 (dsDNA)
DNA 1: CCATTTCCCGCCTACCGACCTGCTGCACCTCACGGA
DNA 2: TCCGTGAGGTGCAGCAGGTCGGTAGGCGGGAAATGG
B10: Table S2 C row 82 (dsDNA)
DNA 1: ATTCTAAAATTGGACTGTGGTAAGGGTTGCACAACT
DNA 2: AGTTGTGCAACCCTTACCACAGTCCAATTTTAGAAT
B11: Table S2 C row 99 (dsDNA)
DNA 1: ACAAGCATTTGATTCTGTGGGTCCCCAATGTTGGAA
DNA 2: TTCCAACATTGGGGACCCACAGAATCAAATGCTTGT
B12: Table S2 C row 27 (dsDNA)
DNA 1: AAAACAAGAACCAAAACCACAAGAACCACAAGAACC
DNA 2: GGTTCTTGTGGTTCTTGTGGTTTTGGTTCTTGTTTT
B13: Table S2 B row 1486 (dsDNA)
DNA 1: TCTGTCGTCCCACTTCCTGCTGCGGATTCCACCTCG
DNA 2: CGAGGTGGAATCCGCAGCAGGAAGTGGGACGACAGA
B14: Table S2 C row 153 (dsDNA)
DNA 1: GTAACAACACCAAGGACCACAAATGTGTATGTTGAA
DNA 2: TTCAACATACACATTTGTGGTCCTTGGTGTTGTTAC
B15: Table S2 B row 2712 (dsDNA)
DNA 1: TGGGGCGAAATCCACTGACTTCCGGCTACGCCGTTG
DNA 2: CAACGGCGTAGCCGGAAGTCAGTGGATTTCGCCCCA
B16: Table S2 C row 154 (dsDNA)
DNA 1: CCGTAATCTTCATAAACCTCAATGCTCAAGGTGCAG
DNA 2: CTGCACCTTGAGCATTGAGGTTTATGAAGATTACGG
B17: Table S2 B row 3240 (dsDNA)
DNA 1: CTGTCCGCGACATCCGGGACCTGGGGGACCGCCGAT
DNA 2: ATCGGCGGTCCCCCAGGTCCCGGATGTCGCGGACAG
B18: Table S2 B row 185 (dsDNA)
DNA 1: GCCAGGAGGACTTCCGGGTGGGTGTGATATCTGCGA
DNA 2: TCGCAGATATCACACCCACCCGGAAGTCCTCCTGGC
B19: Table S2 C row 22 (dsDNA)
DNA 1: CTTGTTCAAGCAATTTGAGGTTTTTTAGGGAGGTTG
DNA 2: CAACCTCCCTAAAAAACCTCAAATTGCTTGAACAAG
B20: Table S2 C row 38 (dsDNA)
DNA 1: CAATTTAGCCTTTTAACCACTAAACTCCCTTGCCTA
DNA 2: TAGGCAAGGGAGTTTAGTGGTTAAAAGGCTAAATTG
B21: Table S2 B row 2669 (dsDNA)
DNA 1: CCCCTCAGCTTCCGGGTGCTGCGCCCGAGGCCGAGA
DNA 2: TCTCGGCCTCGGGCGCAGCACCCGGAAGCTGAGGGG
B22: Table S2 C row 176 (dsDNA)
DNA 1: ATATCCACTCAGTAGTGTGGTTTGTAAGGACTAAAT
DNA 2: ATTTAGTCCTTACAAACCACACTACTGAGTGGATAT
B23: Table S2 C row 170 (dsDNA)
DNA 1: TCCTGAACTATTCACTGTGGTGATGAAATATGCTAA
DNA 2: TTAGCATATTTCATCACCACAGTGAATAGTTCAGGA
B24: Table S2 B row 526 (dsDNA)
DNA 1: TTACTTCCTGAGGGTGCACAGGCTGGGGTCGTCTAT
DNA 2: ATAGACGACCCCAGCCTGTGCACCCTCAGGAAGTAA
B25: Table S2 C row 64 (dsDNA)
DNA 1: GACAGAAAGCAAATTAGTGGTAGCCAAGGGCTAGGG
DNA 2: CCCTAGCCCTTGGCTACCACTAATTTGCTTTCTGTC
B26: Table S2 B row 4091 (dsDNA)
DNA 1: GGCATTCACTTCCGGTCTGGGGCCTACGGCGGCGGC
DNA 2: GCCGCCGCCGTAGGCCCCAGACCGGAAGTGAATGCC
B27: Table S2 B row 1299 (dsDNA)
DNA 1: AGGAGTGTCACTTCCTCTTTCCTCACCAGAGCCTCC
DNA 2: GGAGGCTCTGGTGAGGAAAGAGGAAGTGACACTCCT
B28: Table S2 B row 16 (dsDNA)
DNA 1: CCACTGCTTCCGCCTTCTCTGCTGGCTGAGGGGAGC
DNA 2: GCTCCCCTCAGCCAGCAGAGAAGGCGGAAGCAGTGG
B29: Table S2 B row 2841 (dsDNA)
DNA 1: CCTGTTTCCTGCCATCTGCCCTTCCTTTGGGGTCAA
DNA 2: TTGACCCCAAAGGAAGGGCAGATGGCAGGAAACAGG
B30: Table S2 C row 81 (dsDNA)
DNA 1: AGCCTGACTCTGTGCTGTGGTTGTGAGGCTGGAATG
DNA 2: CATTCCAGCCTCACAACCACAGCACAGAGTCAGGCT
B31: Table S2 B row 1200 (dsDNA)
DNA 1: GGTTCATTTCCTTTTCCTCCTTGGGGTATAAAAGAG
DNA 2: CTCTTTTATACCCCAAGGAGGAAAAGGAAATGAACC
B32: Table S2 B row 1635 (dsDNA)
DNA 1: GGACAGGAAGTTCCTGCAGCTTCTACCCCAAACCTA
DNA 2: TAGGTTTGGGGTAGAAGCTGCAGGAACTTCCTGTCC
B33: Table S2 C row 3 (dsDNA)
DNA 1: GCGAGAGCAGCAAGAACCACACCCAGCAGCAATGTC
DNA 2: GACATTGCTGCTGGGTGTGGTTCTTGCTGCTCTCGC
B34: Table S2 C row 152 (dsDNA)
DNA 1: CTTTCATCTCTGACATGTGGCTTCTAAGGGTACACT
DNA 2: AGTGTACCCTTAGAAGCCACATGTCAGAGATGAAAG
B35: Table S2 C row 84 (dsDNA)
DNA 1: ATCTATTATGAGCCTACCACCATGCTAGACAAGTTG
DNA 2: CAACTTGTCTAGCATGGTGGTAGGCTCATAATAGAT
B36: Table S2 B row 3124 (dsDNA)
DNA 1: TCCACATCCTGCTCCTCGGGTTTACGGCGAGGACTC
DNA 2: GAGTCCTCGCCGTAAACCCGAGGAGCAGGATGTGGA
B37: Table S2 B row 2731 (dsDNA)
DNA 1: AGAACCACTTCCTCTCAGTAAATCACAGAGACTGTA
DNA 2: TACAGTCTCTGTGATTTACTGAGAGGAAGTGGTTCT
B38: Table S2 B row 1811 (dsDNA)
DNA 1: GGTTTCGCTTCCGGGTTAGGCGGCCGGAGAAGCGTA
DNA 2: TACGCTTCTCCGGCCGCCTAACCCGGAAGCGAAACC
B39: Table S2 B row 2131 (dsDNA)
DNA 1: CTACTTTCCGGTCAACGCGGCCTGGGGTACCACCTC
DNA 2: GAGGTGGTACCCCAGGCCGCGTTGACCGGAAAGTAG
B40: Table S2 B row 3820 (dsDNA)
DNA 1: GGCGGCTTCCGGGATCTGCCTGGCGCTTGCTTTGTC
DNA 2: GACAAAGCAAGCGCCAGGCAGATCCCGGAAGCCGCC
B41: Table S2 C row 4 (dsDNA)
DNA 1: GAAAGAGCGAAATGTTGCGGTTTAGTTAATGCTTTG
DNA 2: CAAAGCATTAACTAAACCGCAACATTTCGCTCTTTC
B42: Table S2 C row 1 (dsDNA)
DNA 1: CCCTCATCTGAGAACACCACATTTCTCCCTCTGTCA
DNA 2: TGACAGAGGGAGAAATGTGGTGTTCTCAGATGAGGG

Molecular target: T1, ETS1
Assay: gcPBM; 1 nM ETS1
Details: tags: N-terminal GST (pDEST15), kept (PMC6008103); label: surface-attached array probe

First: B1
Second: B2
The binding signal of the first is lower: 425 PBM fluorescence, median of replicate spots for the first, 437 PBM fluorescence, median of replicate spots for the second.

First: B3
Second: B4
The binding signal of the first is higher: 437 PBM fluorescence, median of replicate spots for the first, 420 PBM fluorescence, median of replicate spots for the second.

First: B5
Second: B6
The binding signal of the first is higher: 12000 PBM fluorescence, median of replicate spots for the first, 429 PBM fluorescence, median of replicate spots for the second.

Compared with B7, B8 is lower in binding signal: 35000 PBM fluorescence, median of replicate spots for the first, 11800 PBM fluorescence, median of replicate spots for the second.

First: B9
Second: B10
The binding signal of the first is higher: 9790 PBM fluorescence, median of replicate spots for the first, 420 PBM fluorescence, median of replicate spots for the second.

Compared with B11, B12 is lower in binding signal: 431 PBM fluorescence, median of replicate spots for the first, 420 PBM fluorescence, median of replicate spots for the second.

Compared with B13, B14 is lower in binding signal: 12200 PBM fluorescence, median of replicate spots for the first, 421 PBM fluorescence, median of replicate spots for the second.

Going from B15 to B16, the binding signal falls from 10100 PBM fluorescence, median of replicate spots to 438 PBM fluorescence, median of replicate spots.

Compared with B17, B18 is higher in binding signal: 8950 PBM fluorescence, median of replicate spots for the first, 11300 PBM fluorescence, median of replicate spots for the second.

Going from B19 to B20, the binding signal falls from 428 PBM fluorescence, median of replicate spots to 426 PBM fluorescence, median of replicate spots.

Going from B21 to B22, the binding signal falls from 9110 PBM fluorescence, median of replicate spots to 440 PBM fluorescence, median of replicate spots.

Compared with B23, B24 is higher in binding signal: 432 PBM fluorescence, median of replicate spots for the first, 8570 PBM fluorescence, median of replicate spots for the second.

First: B25
Second: B26
The binding signal of the first is lower: 439 PBM fluorescence, median of replicate spots for the first, 37100 PBM fluorescence, median of replicate spots for the second.

Compared with B27, B28 is lower in binding signal: 9350 PBM fluorescence, median of replicate spots for the first, 8730 PBM fluorescence, median of replicate spots for the second.

Compared with B29, B30 is lower in binding signal: 8210 PBM fluorescence, median of replicate spots for the first, 440 PBM fluorescence, median of replicate spots for the second.

Going from B31 to B32, the binding signal rises from 8120 PBM fluorescence, median of replicate spots to 9480 PBM fluorescence, median of replicate spots.

Compared with B33, B34 is lower in binding signal: 422 PBM fluorescence, median of replicate spots for the first, 421 PBM fluorescence, median of replicate spots for the second.

Compared with B35, B36 is higher in binding signal: 434 PBM fluorescence, median of replicate spots for the first, 10800 PBM fluorescence, median of replicate spots for the second.

Going from B37 to B38, the binding signal rises from 10400 PBM fluorescence, median of replicate spots to 11000 PBM fluorescence, median of replicate spots.

First: B39
Second: B40
The binding signal of the first is higher: 9890 PBM fluorescence, median of replicate spots for the first, 8430 PBM fluorescence, median of replicate spots for the second.

First: B41
Second: B42
The binding signal of the first is higher: 442 PBM fluorescence, median of replicate spots for the first, 436 PBM fluorescence, median of replicate spots for the second.
